One experiment concerns the target T1, His-tagged P3028 (human, also: His-tag, terminus and sequence not given here).
T1 construct: used in solution in the PEPSCAN (rampo) ELISA; also called PGE73; His-tag-P3028; not shown: His tag
T1 peptide: VFDEFKPLVEEPQNLIK
In words: PEPSCAN ELISA (rampo). (In general: An ELISA detects its analyte on a solid surface through an enzyme-linked reagent.)

Experiment [1] deals with T2, His-tagged P3028 peptide (PGE73) (human).
T2 construct: albumin-derived peptide, in solution at 0.5 ug/mL; not shown: His-tag
T2 peptide: VFDEFKPLVEEPQNLIK
Nature of the experiment: PEPSCAN ELISA, peptide on card.

No end group written: not given here.

Turning to DTFFVKLSLFTER [SEQ ID NO 48], the binding result with His-tagged P3028 is reported as “binds”. Consider KKLDTFFVKLSIFTER [SEQ ID NO 352], for which, in the experiment with His-tagged P3028, the “rampo score relative to the P28R control sample” value was ≥ 98 % of P28R control. On the same count and under the same terms, for KKLDTFFVKLSLMTER [SEQ ID NO 367] the value was ≥ 98 % of P28R control. Still for that read-out and setting: the value for KKLDTFFVKLSLRTER [SEQ ID NO 371] was ≥ 98 % of P28R control; that for KKLDTFFVKLSLFNER [SEQ ID NO 382] was ≥ 98 % of P28R control. As for KKLDTFFVKLSLFTEF [SEQ ID NO 388], the “rampo score relative to the P28R control sample” value with His-tagged P3028 is ≥ 98 % of P28R control. On to KKLDTFFVKLSSFTER [SEQ ID NO 357], for which the “rampo score relative to the P28R control sample” value with His-tagged P3028 was ≥ 98 % of P28R control.

Turning to KKLDTFFVKLSLCTER [SEQ ID NO 362], the “rampo score relative to the P28R control sample” value with His-tagged P3028 was ≥ 98 % of P28R control. Still for that read-out and setting: the value for KKLDTFFVKLSLFTEY [SEQ ID NO 393] was ≥ 98 % of P28R control; that for KKLDTFFVKLSLFTEK [SEQ ID NO 389] was ≥ 98 % of P28R control; that for KKLDTFFVKLSLFPER [SEQ ID NO 383] was ≥ 98 % of P28R control.

Consider KKLDTFFVKLSLVTER [SEQ ID NO 374], for which the “rampo score relative to the P28R control sample” value with His-tagged P3028 is ≥ 98 % of P28R control. Still for that read-out and setting: the value for KKLDTFFVKLSLHTER [SEQ ID NO 364] was ≥ 98 % of P28R control; that for KKLDTFFVKLSLTTER [SEQ ID NO 373] was ≥ 98 % of P28R control; that for KKLDTFFVKLSMFTER [SEQ ID NO 353] was ≥ 98 % of P28R control. In the case of KKLDTFFVKLSLFHER [SEQ ID NO 378], the “rampo score relative to the P28R control sample” value with His-tagged P3028 was ≥ 98 % of P28R control. The same measure, in the same setting: the value for KKLDTFFVKLSVFTER [SEQ ID NO 359] was ≥ 98 % of P28R control. On the same count and under the same terms, the value for KKLDTFFVKLSLFMER [SEQ ID NO 381] was ≥ 98 % of P28R control. The same measure, in the same setting: the value for KKLDTFFVKLSLFTEN [SEQ ID NO 390] was ≥ 98 % of P28R control; that for KKLDTFFVKLSWFTER [SEQ ID NO 360] was ≥ 98 % of P28R control; that for KKLDTFFVKLSLFTET [SEQ ID NO 392] was ≥ 98 % of P28R control. As to KKLDTFFVKLSLITER [SEQ ID NO 365], the “rampo score relative to the P28R control sample” value with His-tagged P3028 was ≥ 98 % of P28R control. On the same count and under the same terms, for KKLDTFFVKLSNFTER [SEQ ID NO 354] the value was ≥ 98 % of P28R control. Same read-out and setting: the value for KKLDTFFVKLSLFLER [SEQ ID NO 380] was ≥ 98 % of P28R control; that for KKLDTFFVKLSLGTER [SEQ ID NO 363] was ≥ 98 % of P28R control. Still for that read-out and setting: for KKLDTFFVKLSLQTER [SEQ ID NO 370] the value was ≥ 98 % of P28R control; for KKLDTFFVKLSLFSER [SEQ ID NO 384], ≥ 98 % of P28R control.

KKLDTFFVKLSLFFER [SEQ ID NO 376]: the “rampo score relative to the P28R control sample” value with His-tagged P3028 is ≥ 98 % of P28R control. Take KKLDTFFVKLSQFTER [SEQ ID NO 355]: the “rampo score relative to the P28R control sample” value with His-tagged P3028 is ≥ 98 % of P28R control.

Take KKLDTFFVKLSTFTER [SEQ ID NO 358]: the “rampo score relative to the P28R control sample” value in the experiment with His-tagged P3028 was ≥ 98 % of P28R control. Still for that read-out and setting: for KKLDTFFVKLSLFGER [SEQ ID NO 377] the value was ≥ 98 % of P28R control; for KKLDTFFVKLSLWTER [SEQ ID NO 375], ≥ 98 % of P28R control; for KKLDTFFVKLSLFWER [SEQ ID NO 386], ≥ 98 % of P28R control. Still for that read-out and setting: the value for KKLDTFFVKLSLPTER [SEQ ID NO 369] was ≥ 98 % of P28R control; that for KKLDTFFVKLSLFIER [SEQ ID NO 379] was ≥ 98 % of P28R control.

In the case of KKLDTFFVKLSLSTER [SEQ ID NO 372], the “rampo score relative to the P28R control sample” value with His-tagged P3028 is ≥ 98 % of P28R control. On the same count and under the same terms, the value for KKLDTFFVKLSLATER [SEQ ID NO 361] was ≥ 98 % of P28R control; that for KKLDTFFVKLSLFVER [SEQ ID NO 385] was ≥ 98 % of P28R control. Still for that read-out and setting: the value for KKLDTFFVKLSLLTER [SEQ ID NO 366] was ≥ 98 % of P28R control; that for KKLDTFFVKLSLNTER [SEQ ID NO 368] was ≥ 98 % of P28R control. The same measure, in the same setting: the value for KKLDTFFVKLSLFTDR [SEQ ID NO 387] was ≥ 98 % of P28R control; that for KKLDTFFVKLSRFTER [SEQ ID NO 356] was ≥ 98 % of P28R control. In the case of VKLSLFTER [SEQ ID NO 52], the binding result in the experiment with His-tagged P3028 is given as “binds”. Still for that read-out and setting: for FVKL the value was “binds”.

Regarding KKLDTFVKLSLFTER [SEQ ID NO 65], in the experiment with His-tagged P3028, the binding result is recorded as “binds”. Turning to KKLDTFFKLSLFTER [SEQ ID NO 66], the binding result with His-tagged P3028 is reported as “binds”.

Turning to LDTFFVKLSLFTER [SEQ ID NO 47], the binding result in the experiment with His-tagged P3028 was “binds”. KKLTFFVKLSLFTER [SEQ ID NO 64]: the binding result with His-tagged P3028 is on record as “binds”.

For the molecule FVKLSLFTER [SEQ ID NO 51], in the experiment with His-tagged P3028, the binding result is given as “binds”. The same measure, in the same setting: for KKFFVKLSLFTER [SEQ ID NO 76] the value was “binds”. On the same count and under the same terms, for KLDTFFVKLSLFTER [SEQ ID NO 46] the value was “binds”; for KKLDTFFVKLSFTER [SEQ ID NO 68], “binds”.

For FFVKLSLFTER [SEQ ID NO 50], in the experiment with His-tagged P3028, the binding result was “binds”. Still for that read-out and setting: the value for KLSLFTER [SEQ ID NO 53] was “binds”. For the molecule KKLDTFFVKLSLFTER [SEQ ID NO 391], the “rampo score relative to the P28R control sample” value with His-tagged P3028 is ≥ 98 % of P28R control. On to AKLDTFFVKLSLFTER [SEQ ID NO: 268 AKLDTFFVKLSLFTER], for which, in experiment [1], the “RAMPO Score” value amounted to 466. With DKLDTFFVKLSLFTER [SEQ ID NO: 269 DKLDTFFVKLSLFTER], the “RAMPO Score” value in experiment [1] amounted to 373. With EKLDTFFVKLSLFTER [SEQ ID NO: 270 EKLDTFFVKLSLFTER], the “RAMPO Score” value in experiment [1] is 396. On to KKLDTFFVKLSLFTE [SEQ ID NO 34], for which the binding result in the experiment with His-tagged P3028 is “binds”. For the molecule TFFVKLSLFTER [SEQ ID NO 49], in the experiment with His-tagged P3028, the binding result is “binds”.
